In series [1] the target is T1, PhoP K201A K201A (Salmonella enterica serovar Typhimurium) (UniProt D0ZV90).
T1 sequence: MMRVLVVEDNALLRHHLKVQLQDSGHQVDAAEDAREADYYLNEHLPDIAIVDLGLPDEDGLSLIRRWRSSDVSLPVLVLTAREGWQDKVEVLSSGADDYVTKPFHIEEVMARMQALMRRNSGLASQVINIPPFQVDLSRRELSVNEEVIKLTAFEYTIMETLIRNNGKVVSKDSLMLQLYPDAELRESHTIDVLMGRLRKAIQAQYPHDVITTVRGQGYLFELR
Nature of the series: EMSA. The note with it: EMSA: 25 mM Tris-HCl pH 8.0, 50 mM KCl, 0.5 mM EDTA, 10% glycerol, 37 C 30 min, gel at 4 C; SPR: Biacore 2000, streptavidin chip, buffer not given. A general note: Mobility shift assays separate free from complexed probe on a gel.

Series [2] addresses T2, PhoP K201Q K201Q (Salmonella enterica serovar Typhimurium) (UniProt D0ZV90).
T2 sequence: T1 sequence with A201Q
Briefly: EMSA. The conditions noted are these: EMSA: 25 mM Tris-HCl pH 8.0, 50 mM KCl, 0.5 mM EDTA, 10% glycerol, 37 C 30 min, gel at 4 C; SPR: Biacore 2000, streptavidin chip, buffer not given.

For series [3], the target named is T3, PhoP K201R K201R (Salmonella enterica serovar Typhimurium) (UniProt D0ZV90).
T3 sequence: T1 sequence with A201R
Nature of the series: EMSA. The note with it: EMSA: 25 mM Tris-HCl pH 8.0, 50 mM KCl, 0.5 mM EDTA, 10% glycerol, 37 C 30 min, gel at 4 C; SPR: Biacore 2000, streptavidin chip, buffer not given.

Series [4] addresses T4, PhoP WT (Salmonella enterica serovar Typhimurium) (UniProt D0ZV90).
T4 sequence: T1 sequence with A201K
Nature of the series: EMSA. The note with it: EMSA: 25 mM Tris-HCl pH 8.0, 50 mM KCl, 0.5 mM EDTA, 10% glycerol, 37 C 30 min, gel at 4 C; SPR: Biacore 2000, streptavidin chip, buffer not given.

The target of the next series is PhoP WT (Salmonella enterica serovar Typhimurium, UniProt D0ZV90 1-224). Nature of the series: SPR; 0.3-1 uM PhoP; response 2.3-fold (0.6 uM) and 4.0-fold (1 uM) of that at 0.3 uM; EMSA: 25 mM Tris-HCl pH 8.0, 50 mM KCl, 0.5 mM EDTA, 10% glycerol, 37 C 30 min, gel at 4 C; SPR: Biacore 2000, streptavidin chip, buffer not given. The conditions noted are these: protein: recombinant; tags: C-terminal 6xHis; chain copies: 2; label: 5'-biotin on strand 1; blunt. (Surface plasmon resonance follows binding to a sensor surface in real time, without labels.)

Residue numbers refer to the chain shown, from its start.

In the case of “ATCCTCTACAACCAGTACGCGCATCATCTCTTCTCCCTTGTGTTAACAATAAGAACAGTCTAGCGTTGATTATGGTGCTTTGGGGATAAACAGTTAATAAACCAGACAAATAGTCACCCTCTTTCTGAAGAAAAGAGGGTGAGGCAGGCATTATTTAAGTTCGTCGACCAGAGTCACAGCGCGA (double strand) [phoP promoter 184 bp]”, the binding entry was “binds more weakly” in series [1], “binds more weakly” in series [2], “binds” in series [3] and “binds” in series [4].

B1: PhoP box of phoP promoter (dsDNA)
DNA 1: GGGGTCTGGTTTATTAACTGTTTATCCGGGG
DNA 2: CCCCGGATAAACAGTTAATAAACCAGACCCC
On to B1, for which the binding result with PhoP WT is listed as “binds”.

For the origin of these results see publication PMC4778762, “Acetylation of Lysine 201 Inhibits the DNA-Binding Ability of PhoP to Regulate Salmonella Virulence”.
